According to publication PMC6702080 (2019):

Molecular target: T1, BolA2 (Homo sapiens, UniProt Q9H3K6)
T1 chain: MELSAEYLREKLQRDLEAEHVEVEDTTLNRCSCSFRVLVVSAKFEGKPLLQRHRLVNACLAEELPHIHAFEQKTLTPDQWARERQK
Experiment: pull-down

B1: PCBP1 KH3 (protein)
chain: ASTQTTHELTIPNNLIGCIIGRQGANINEIRQMSGAQIKIANPVEGSSGRQVTITGSAASISLAQYLINAR
modifications: Fe(II)+GSH
Q: With B1 as the binder, how does the Kd read?
A: 900 nM
